Results taken from article PMC2946590, “Replication Past the γ-Radiation-Induced Guanine-Thymine Cross-Link G[8,5-Me]T by Human and Yeast DNA Polymerase η” (Journal of Nucleic Acids, 2010).

B1: human DNA polymerase η (hPol η) (Homo sapiens) (protein)
chain: MATGQDRVVALVDMDCFFVQVEQRQNPHLRNKPCAVVQYKSWKGGGIIAVSYEARAFGVTRSMWADDAKKLCPDLLLAQVRESRGKANLTKYREASVEVMEIMSRFAVIERASIDEAYVDLTSAVQERLQKLQGQPISADLLPSTYIEGLPQGPTTAEETVQKEGMRKQGLFQWLDSLQIDNLTSPDLQLTVGAVIVEEMRAAIERETGFQCSAGISHNKVLAKLACGLNKPNRQTLVSHGSVPQLFSQMPIRKIRSLGGKLGASVIEILGIEYMGELTQFTESQLQSHFGEKNGSWLYAMCRGIEHDPVKPRQLPKTIGCSKNFPGKTALATREQVQWWLLQLAQELEERLTKDRNDNDRVATQLVVSIRVQGDKRLSSLRRCCALTRYDAHKMSHDAFTVIKNCNTSGIQTEWSPPLTMLFLCATKFSASAPSSSTDITSFLSSDPSSLPKVPVTSSEAKTQGSGPAVTATKKATTSLESFFQKAAERQKVKEASLSSLTAPTQAPMSNSPSKPSLPFQTSQSTGTEPFFKQKSLLLKQKQLNNSSVSSPQQNPWSNCKALPNSLPTEYPGCVPVCEGVSKLEESSKATPAEMDLAHNSQSMHASSASKSVLEVTQKATPNPSLLAAEDQVPCEKCGSLVPVWDMPEHMDYHFALELQKSFLQPHSSNPQVVSAVSHQGKRNPKSPLACTNKRPRPEGMQTLESFFKPLTH
notes: recombinant, purchased from Enzymax LLC (Lexington, KY)
B2: yeast DNA polymerase η (yPol η) (Saccharomyces cerevisiae S288C) (protein)
chain: MSKFTWKELIQLGSPSKAYESSLACIAHIDMNAFFAQVEQMRCGLSKEDPVVCVQWNSIIAVSYAARKYGISRMDTIQEALKKCSNLIPIHTAVFKKGEDFWQYHDGCGSWVQDPAKQISVEDHKVSLEPYRRESRKALKIFKSACDLVERASIDEVFLDLGRICFNMLMFDNEYELTGDLKLKDALSNIREAFIGGNYDINSHLPLIPEKIKSLKFEGDVFNPEGRDLITDWDDVILALGSQVCKGIRDSIKDILGYTTSCGLSSTKNVCKLASNYKKPDAQTIVKNDCLLDFLDCGKFEITSFWTLGGVLGKELIDVLDLPHENSIKHIRETWPDNAGQLKEFLDAKVKQSDYDRSTSNIDPLKTADLAEKLFKLSRGRYGLPLSSRPVVKSMMSNKNLRGKSCNSIVDCISWLEVFCAELTSRIQDLEQEYNKIVIPRTVSISLKTKSYEVYRKSGPVAYKGINFQSHELLKVGIKFVTDLDIKGKNKSYYPLTKLSMTITNFDIIDLQKTVVDMFGNQVHTFKSSAGKEDEEKTTSSKADEKTPKLECCKYQVTFTDQKALQEHADYHLALKLSEGLNGAEESSKNLSFGEKRLLFSRKRPNSQHTATPQKKQVTSSKNILSFFTRKK
notes: as for B1

Columns and labels:
[1] = substrate: Nc1ncnc2c1ncn2[C@H]1C[C@H](O)[C@@H](COP(=O)(O)OP(=O)(O)OP(=O)(O)O)O1; test: purified protein; type: biochemical, Homo sapiens; conditions: undamaged 26-mer template, misincorporation opposite G, 6.4 nM enzyme, 50 nM template-primer, 25 mM Tris-HCl pH 7.5, 5 mM MgCl2, 5 mM DTT, 37 °C
[2] = substrate: Nc1ncnc2c1ncn2[C@H]1C[C@H](O)[C@@H](COP(=O)(O)OP(=O)(O)OP(=O)(O)O)O1; test: purified protein; type: biochemical, Saccharomyces cerevisiae; conditions: undamaged 26-mer template, misincorporation opposite G, 6.4 nM enzyme, 50 nM template-primer, 25 mM Tris-HCl pH 7.5, 5 mM MgCl2, 5 mM DTT, 37 °C

| Protein | Km [1] [µM] | kcat [1] [s⁻¹] | kcat/Km [1] [M⁻¹ s⁻¹] | Km [2] [µM] | kcat [2] [s⁻¹] | kcat/Km [2] [M⁻¹ s⁻¹] |
| --- | --- | --- | --- | --- | --- | --- |
| B1 | 6.5 ± 0.03 | 0.104 ± 0.00017 | 16000 | – | – | – |
| B2 | – | – | – | 9.5 ± 0.002 | 0.0883 ± 0.0005 | 9330 |
